Columns and labels:
Assay type in all cases: in vivo
[1] = system: Arabidopsis thaliana T1 plants; assay: Topramezone tolerance of transgenic Arabidopsis thaliana T1 plants (spray, bleached leaf area grade, damage score); conditions: Table 10; for Classification and statistics of the grade of pesticide damage Grade 0: number of plants at grade 0; for Classification and statistics of the grade of pesticide damage Grade 1: number of plants at grade 1; for Classification and statistics of the grade of pesticide damage Grade 2: number of plants at grade 2; for Classification and statistics of the grade of pesticide damage Grade 3: number of plants at grade 3; for Scores: pesticide damage score
Procedure, shortened: (§1)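 T1 transformants selected by glufosinate; 18-day-old plants, with empty-vector and wild-type controls, sprayed with topramezone (25–200 g ai/ha), isoxaflutole (35–280 g ai/ha) or mesotrione (52.5–420 g ai/ha), water as 0×. Bleached leaf area fraction scored at 7 DAT as grades 0–3.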

[2] = system: Arabidopsis thaliana T1 plants; assay: Isoxaflutole tolerance of transgenic Arabidopsis thaliana T1 plants (spray, bleached leaf area grade, damage score); conditions: Table 11; for Classification and statistics of the grade of pesticide damage Grade 0: number of plants at grade 0; for Classification and statistics of the grade of pesticide damage Grade 1: number of plants at grade 1; for Classification and statistics of the grade of pesticide damage Grade 2: number of plants at grade 2; for Classification and statistics of the grade of pesticide damage Grade 3: number of plants at grade 3; for Scores: pesticide damage score;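 as to Scores: Weighted damage index from 0 to 100 where higher means more damage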
Procedure, shortened: as §1

[3] = system: Arabidopsis thaliana T1 plants; assay: Mesotrione tolerance of transgenic Arabidopsis thaliana T1 plants (spray, bleached leaf area grade, damage score); parameters: Scores: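 damage score 0-100 computed as Σ(N×S)/(T×M)×100 over grades 0-3 with higher meaning more damage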; conditions: Table 12; for Classification and statistics of the grade of pesticide damage Grade 0: number of plants at grade 0; for Classification and statistics of the grade of pesticide damage Grade 1: number of plants at grade 1; for Classification and statistics of the grade of pesticide damage Grade 2: number of plants at grade 2; for Classification and statistics of the grade of pesticide damage Grade 3: number of plants at grade 3; for Scores: pesticide damage score
Procedure, shortened: as §1

B1: HPPDm-7-02: nucleotide sequence encoding AsHPPDm-A107-K351N-F372A-F383W with mutated C-terminal; vector DBN11788 (nucleic acid)
DNA: ATGCCACCTACTCCAGCTACAGCTACTGGTGCTGCTGCTGCTGCCGTTACTCCTGAGCACGCTGCCAGGTCATTCCCCAGGGTGGTTCGCGTGAACCCCAGATCTGATAGGTTCCCAGTTCTGAGCTTCCACCATGTTGAGCTGTGGTGCGCTGATGCTGCTTCTGCTGCTGGCAGGTTCTCTTTCGCTCTTGGTGCTCCACTCGCTGCTAGATCTGATCTGTCTACAGGAAATAGCGCTCATGCCTCACTCCTGCTTCGCTCAGGTGCTTTGGCCTTCCTCTTCACCGCTCCATATGCTCCCCCACCTCAGGAGGCTACTGCTGCTGCTACAGCCTCCATTCCAAGCTTCTCAGCTGATGCCGCTAGAACCTTCGCTGCTGCTCATGGACTTGCCGTGAGGTCTGTTGGTGTTCGCGTGGCTGATGCTGCTGAGGCTTTCAGAGTTTCCGTTGCCGGCGGAGCTAGGCCAGCTTTCGCTCCTGCTGATTTGGGACATGGTTTCGGCCTGGCTGAGGTTGAGCTTTACGGTGACGTGGTTCTCCGCTTCGTGTCTTACCCAGATGAGACTGACCTGCCTTTCCTTCCCGGCTTCGAGAGAGTTTCCTCTCCTGGTGCCGTGGATTACGGCCTGACAAGGTTCGACCACGTGGTTGGAAACGTTCCCGAGATGGCTCCAGTGATCGATTACATGAAGGGCTTCCTTGGATTCCATGAGTTCGCCGAGTTCACTGCTGAGGACGTGGGAACCACTGAGTCCGGTTTGAACTCTGTGGTTCTCGCCAACAATTCTGAGGCTGTTTTGCTCCCTCTGAATGAGCCTGTGCATGGAACCAAGAGGAGAAGCCAGATTCAAACTTACCTGGAGTACCACGGTGGCCCTGGAGTTCAGCATATCGCCCTTGCTTCTAATGATGTGTTGCGCACACTCAGAGAGATGCGCGCCAGAACCCCCATGGGAGGTTTCGAGTTCATGGCCCCACCACAGGCTAAGTACTACGAGGGCGTTAGAAGGATTGCTGGAGACGTGTTGAGCGAGGAGCAGATCAATGAGTGCCAAGAGCTGGGTGTTCTTGTGGATAGGGATGACCAGGGCGTTCTGCTTCAAATTGCCACTAAGCCAGTGGGCGACCGCCCTACATTCTGGCTTGAGATGATTCAAAGAATCGGCTGCATGGAGAAGGATGAGGTTGGACAGGAGTACCAAAAGGGCGGATGCGGTGGCTTCGGAAAGGGTAACTTCAGCGAGTTGTTCAAGTCAATCGAGGAGTATGAGAAGACCTTGGAGGCCAAGCAGCTCGTGGGTTGA
modifications: mutated C-terminus; HPPDm-7-02 Nucleotide Sequence
notes: vector DBN11788
Resistance evaluation ([1]; topramezone 100 g ai/ha (4×)): Highly resistant
Classification and statistics of the grade of pesticide damage Grade 0 ([1]; topramezone 100 g ai/ha (4×)): 16
Classification and statistics of the grade of pesticide damage Grade 1 ([1]; topramezone 100 g ai/ha (4×)): 0
Classification and statistics of the grade of pesticide damage Grade 2 ([1]; topramezone 100 g ai/ha (4×)): 0
Classification and statistics of the grade of pesticide damage Grade 3 ([1]; topramezone 100 g ai/ha (4×)): 0
Scores ([1]; topramezone 100 g ai/ha (4×)): 0
Resistance evaluation ([1]; topramezone 200 g ai/ha (8×)): Highly resistant
Classification and statistics of the grade of pesticide damage Grade 0 ([1]; topramezone 200 g ai/ha (8×)): 16
Classification and statistics of the grade of pesticide damage Grade 1 ([1]; topramezone 200 g ai/ha (8×)): 0
Classification and statistics of the grade of pesticide damage Grade 2 ([1]; topramezone 200 g ai/ha (8×)): 0
Classification and statistics of the grade of pesticide damage Grade 3 ([1]; topramezone 200 g ai/ha (8×)): 0
Scores ([1]; topramezone 200 g ai/ha (8×)): 0
Resistance evaluation ([2]; isoxaflutole 140 g ai/ha (2×)): Highly resistant
Classification and statistics of the grade of pesticide damage Grade 0 ([2]; isoxaflutole 140 g ai/ha (2×)): 16
Classification and statistics of the grade of pesticide damage Grade 1 ([2]; isoxaflutole 140 g ai/ha (2×)): 0
Classification and statistics of the grade of pesticide damage Grade 2 ([2]; isoxaflutole 140 g ai/ha (2×)): 0
Classification and statistics of the grade of pesticide damage Grade 3 ([2]; isoxaflutole 140 g ai/ha (2×)): 0
Scores ([2]; isoxaflutole 140 g ai/ha (2×)): 0
Resistance evaluation ([2]; isoxaflutole 280 g ai/ha (4×)): Highly resistant
Classification and statistics of the grade of pesticide damage Grade 0 ([2]; isoxaflutole 280 g ai/ha (4×)): 16
Classification and statistics of the grade of pesticide damage Grade 1 ([2]; isoxaflutole 280 g ai/ha (4×)): 0
Classification and statistics of the grade of pesticide damage Grade 2 ([2]; isoxaflutole 280 g ai/ha (4×)): 0
Classification and statistics of the grade of pesticide damage Grade 3 ([2]; isoxaflutole 280 g ai/ha (4×)): 0
Scores ([2]; isoxaflutole 280 g ai/ha (4×)): 0
Resistance evaluation ([3]; mesotrione 210 g ai/ha (2×)): Highly resistant
Classification and statistics of the grade of pesticide damage Grade 0 ([3]; mesotrione 210 g ai/ha (2×)): 16
Classification and statistics of the grade of pesticide damage Grade 1 ([3]; mesotrione 210 g ai/ha (2×)): 0
Classification and statistics of the grade of pesticide damage Grade 2 ([3]; mesotrione 210 g ai/ha (2×)): 0
Classification and statistics of the grade of pesticide damage Grade 3 ([3]; mesotrione 210 g ai/ha (2×)): 0
Scores ([3]; mesotrione 210 g ai/ha (2×)): 0
Resistance evaluation ([3]; mesotrione 420 g ai/ha (4×)): Highly resistant
Classification and statistics of the grade of pesticide damage Grade 0 ([3]; mesotrione 420 g ai/ha (4×)): 15
Classification and statistics of the grade of pesticide damage Grade 1 ([3]; mesotrione 420 g ai/ha (4×)): 1
Classification and statistics of the grade of pesticide damage Grade 2 ([3]; mesotrione 420 g ai/ha (4×)): 0
Classification and statistics of the grade of pesticide damage Grade 3 ([3]; mesotrione 420 g ai/ha (4×)): 0
Scores ([3]; mesotrione 420 g ai/ha (4×)): 2

Source: patent publication US20250043302A1, “MUTATED HYDROXYPHENYLPYRUVATE DIOXYGENASE POLYPEPTIDE, AND CODING GENE AND USE THEREOF” (BEIJING DABEINONG BIOTECHNOLOGY CO., LTD., priority 2021, published 2025)
